Assay [1] has as its target T1, mouse RAGE (mRAGE) fused to EGFP, expressed on CHO cells (mouse, UniProt Q62151 23-402).
T1 construct: whole, on cells; also called CHO-mRAGE-EGFP; murine RAGE; not shown: EGFP from the pEGFP-N1 vector (Clontech), fused at the C-terminal (intracellular) end
The experiment in a line: apparent Kd (Kd app), flow cytometry on CHO-mRAGE-EGFP cells. The procedure: The binding properties of VHHs with affinity for RAGE were tested using flow cytometry, and apparent affinities (K_{d app}) were determined. All experiments were performed in 96 well plates using 2×10⁵ cells/well, at 4° C. with shaking. CHO cell lines expressing RAGE fused to EGFP or CHO WT cells were saturated with PBS/BSA 2% solution during 30 min to avoid nonspecific binding, followed by incubation with purified VHHs at concentrations ranging from 50 μM to 0.5 nM for 1 hr. After one wash in PBS/BSA 2%, cells were incubated for 1 hr with an anti-6His tag antibody (mouse), washed twice with PBS/BSA 2%, and incubated for 1 hr with an Alexa647-conjugated anti-mouse secondary antibody. After two last washes in PBS/BSA 2%, cells were fixed by incubation for 15 min with PBS/PFA 2%, washed once with PBS and finally resuspended in PBS. Fluorescence levels were assessed using an Attune N×T flow cytometer (Thermo Fisher Scientific).
The binding properties of VHH-siRNA conjugates with affinity for RAGE were tested using flow cytometry, and apparent affinities (K_{d app}) were determined. The same protocol as the one described in example IV was used.
All VHH-siRNAs bound the mRAGE and induced a concentration-dependent shift of the signal (FIG. 4-A), confirming that the VHH conjugated to both the siTTRm and the siSOD1m retained the binding to the receptor of interest. The VHH-siRNA K_{d app} were calculated using GraphPad Prism software.
A general note: A flow cytometer gives signals particle by particle.

For assay [2], the target named is T2, human RAGE (hRAGE) fused to EGFP, stably expressed on CHO cells (human, UniProt Q15109 23-404).
T2 construct: whole, on cells; also called CHO-hRAGE-EGFP; human receptor; not shown: EGFP from the pEGFP-N1 vector (Clontech), fused at the C-terminal (intracellular) end
T2 sequence (Q15109 23-404): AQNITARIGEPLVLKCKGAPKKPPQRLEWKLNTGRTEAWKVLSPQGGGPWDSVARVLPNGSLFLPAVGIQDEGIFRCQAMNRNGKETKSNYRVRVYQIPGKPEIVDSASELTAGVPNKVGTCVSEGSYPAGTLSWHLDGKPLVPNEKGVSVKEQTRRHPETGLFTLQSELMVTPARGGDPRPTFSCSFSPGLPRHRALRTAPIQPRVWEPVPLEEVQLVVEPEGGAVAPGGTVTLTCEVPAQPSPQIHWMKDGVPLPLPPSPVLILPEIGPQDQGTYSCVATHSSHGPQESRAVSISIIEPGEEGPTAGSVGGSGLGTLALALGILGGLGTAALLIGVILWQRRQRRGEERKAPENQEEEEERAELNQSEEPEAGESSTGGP
The experiment in a line: apparent Kd (Kd app), flow cytometry on CHO-hRAGE-EGFP cells. The procedure: FIG. 3. Apparent Kd determination of VHHs on hRAGE- and mRAGE-expressing CHO cell lines. (A) CHO-hRAGE-EGFP and CHO-mRAGE-EGFP cells were incubated 1 hr at 4° C. with increasing concentrations of VHHs, detected with a mouse anti-6His (1/1000) and an Alexa647-conjugated anti-mouse secondary antibody (1/400). Measurements were performed using flow cytometry. The ratio of fluorescence intensity for each point was normalized with the corresponding EGFP signal (receptor expression) and gave rise to the arbitrary units. Data are presented as mean±SEM of at least 3 independent experiments. (B) Characteristics of selected VHHs: Molecular Weight (Da); Apparent Kd on human RAGE (nM); Apparent Kd on mouse RAGE (nM). Data are presented as mean±SEM of at least 3 independent experiments.
The binding properties of VHHs with affinity for RAGE were tested using flow cytometry, and apparent affinities (K_{d app}) were determined. […] Fluorescence levels were assessed using an Attune N×T flow cytometer (Thermo Fisher Scientific).
Three VHHs (VHH 1, 2 and 5) out of 5 bound both the human and the mouse RAGE and induced a concentration-dependent shift of the signal (FIG. 3-A). […] Moreover, no labelling of the CHO WT control cells was detected with all the tested VHHs (not shown). The VHH K_{d app} were calculated using GraphPad Prism software.

Assay [3] concerns the target T1, mouse RAGE (mRAGE) fused to EGFP, …. Briefly: flow cytometry on CHO-mRAGE-EGFP cells, 4 °C, anti-6His detection.
The target is the same in assay [4]. The experiment in a line: immunocytochemistry, 50 nM on living CHO-mRAGE-EGFP cells, anti-hFc detection. The procedure:
(§1) Immunocytochemistry experiments on CHO cell lines expressing the mouse or human RAGE fused to EGFP were performed to confirm the ability of fusion proteins to bind the RAGE. For these experiments, VHH-Fc fusion proteins were incubated at 50 nM on living cells, detected using an Alexa594-conjugated anti-hFc antibody after cells fixation with PBS-PFA 4% and permeabilization of the cell membrane with PBS-0.1% Triton X100 and photographed with a confocal microscope.

The target of assay [5] is T3, HA-mRAGE (mouse, UniProt Q62151 23-402).
T3 construct: mature; Transiently expressed on CHO cells; also called full-length mRAGE with N-terminal HA tag; not shown: HA tag at the N-terminus; EGFP fused at the C-terminal end (pEGFP-N1)
T3 sequence (Q62151 23-402): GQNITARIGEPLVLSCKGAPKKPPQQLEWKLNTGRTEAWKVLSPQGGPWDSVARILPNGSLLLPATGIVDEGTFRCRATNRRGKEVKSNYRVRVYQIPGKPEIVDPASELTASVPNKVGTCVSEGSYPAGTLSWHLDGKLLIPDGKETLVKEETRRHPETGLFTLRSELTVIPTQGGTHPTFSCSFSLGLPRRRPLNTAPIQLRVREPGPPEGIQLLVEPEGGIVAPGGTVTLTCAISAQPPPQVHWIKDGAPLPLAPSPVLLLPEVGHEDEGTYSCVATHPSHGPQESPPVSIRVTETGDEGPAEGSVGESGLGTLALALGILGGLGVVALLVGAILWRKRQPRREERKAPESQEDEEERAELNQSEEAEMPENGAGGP
Briefly: immunocytochemistry, 250 nM on transfected CHO cells, anti-human Fc detection. The text has this:
To determine the binding domain of VHH-RAGE-Fc, inventors suppressed RAGE domains sequentially, expressed the resulting truncated constructs mRAGE-ΔV, mRAGE-ΔV-C1 (FIG. 9-A) and compared VHHRAGE-Fc binding on the full-length construct (mRAGE and HA-mRAGE) in transfected CHO cells. An HA tag was introduced in the N-ter of each receptor to validate appropriate presentation of the extracellular domain using anti-HA, non-permeabilizing immunocytochemistry. EGFP was fused at the C-terminal end to enable easy visualization of the truncated and full-length receptor by fluorescence microscopy. […] The synthetised DNA fragments were cloned into a pEGFP-N1 plasmid after restriction using XhoI EcoRI and ligation. CHO WT cells were transfected using jetPEI™ with the different plasmid constructs according to the manufacturer's instructions.
For immunocytochemistry, living transfected cells were incubated with 250 nM VHH-RAGE-hFc or anti-HA antibody for 1 hr at 37° C. Cells were then fixed using PBS-PFA 4%.

Assay [6] has as its target T2, human RAGE (hRAGE) fused to EGFP, …. Briefly: flow cytometry on CHO-hRAGE-EGFP cells, 4 °C, anti-6His detection.
Assay [7] has the same target. Briefly: immunocytochemistry, 50 nM on living CHO-hRAGE-EGFP cells, anti-hFc detection. The procedure: as §1
Assay [8] addresses T4, RAGE in mice lungs (endogenous mouse RAGE at the alveolar epithelium) (mouse, UniProt Q62151 23-402).
T4 construct: whole, on cells; also called RAGE in the lung
The experiment in a line: double immunofluorescence on lung sections of mice injected at 35 nmol/kg, 48 hours post injection. The procedure:
FIG. 10. Cellular binding/co-localization of VHH-Fc on RAGE in mice lungs. Immunocytochemistry was performed on the lungs of mice injected with VHH ctrl-Fc, VHH 1-Fc and VHH 5-Fc into tail vein at 35 nmol/kg. The mice were perfused with saline 48 hours post injection and the lungs were incubated in PFA 4% overnight. Lungs were extensively washed in PBS 1× and incubated 2 days in sucrose 30%. Double-immunofluorescent staining of lung tissue with anti-RAGE (Alexa Fluor 488, green) and with VHH-Fc (Alexa Fluor 594, red) antibodies were performed on lung sections. Cell nuclei were labeled with Hoechst #33342 at 0.5 μg/ml (blue). Co-labeling appears in yellow/orange in the merged pictures (right panel). Representative photographs were taken with a confocal microscope with 20× and 63× magnification.
To confirm the ability of fusion proteins to bind RAGE in vivo, immunocytochemistry experiments were performed on lungs of mice injected into the tail vein at 35 nmol/kg with VHH ctrl-Fc, VHH 1-Fc and VHH 5-Fc. Mice were perfused with saline 48 hours post injection and lungs were incubated in PFA 4% overnight. Lungs were extensively washed in PBS 1× and incubated 2 days in sucrose 30% before being snap frozen. The fixed lung was embedded in OCT and cut in 14 μm thick sections. […] Cell nuclei were labeled with Hoechst #33342. […]

Assay [9] deals with T1, mouse RAGE (mRAGE) fused to EGFP, …. The experiment in a line: flow cytometry competition on CHO-mRAGE-EGFP cells; competitor against tracer VHH 1-Fc. The procedure: FIG. 8. Competition assay between VHHs and VHH 1-Fc. (A) Principle of the competition test. In a first step, CHO-mRAGE-EGFP cells were incubated 1 hr at 4° C. with the competitor in dilution series. Second, the tracer at EC80-90 was added and incubated for 1 hr at 4° C. […] Measurements were performed using flow cytometry. (B) CHO-mRAGE-EGFP cells were incubated with the competitors (VHHs). Tracer (VHH 1-Fc) at EC80 was then added and detected with Alexa647-conjugated anti-hFc antibody (1/400).

T1 sequence (Q62151 23-402): as above
T4 sequence (Q62151 23-402): as above

B1: VHH 5 (VHH)
VHH: EVQLVESGGGLVQPGGSLRLSCAASGTIFSLNPMGWYRQAPGKQLELVALISDSGTANYADFVRGRFTISRDTTKKTLYLQMNSLEPEDTAVYYCRSTFAAGNFYWGQGTQVTVSS
notes: also called sdAb VHH 5
For B1, the values for the Kd in [1] and in [2] were 1490 nM and 204 nM, respectively.

B2: VHH 2-siSOD1m (other)
VHH: QVQLVQSGGGLVQAGGSLRLSCAASGSVSSIYAMGWYRQAPGKQREWVTTITGRGITDYAASVKGRFTISRDTAKNAVYLQMNNLKPEDTARYYCKIDRRGYAPYWGQGTQVTVSSAAAEQKLISEEDLNGAAHHHHHHGS
modifications: siRNA siSOD1m linked through an azido linker put by bacterial transglutaminase on the glutamine residue of the myc tag, then copper-free click chemistry
notes: VHH-siRNA conjugate
As for B2, the Kd in assay [1] amounted to 238 nM.

B3: VHH 4-siSOD1m (other)
VHH: EVQLVESGGGLVQAGGSLRLSCVASGRTFSNYAMAWFRQAPGEEREFVARISWRGGRTSYADSVKGRFTISRDNAKNTVYLQMISLKPEDTAVYYCASEGGAFGGVYSATGSYDYWGQGTQVTVSSAAAEQKLISEEDLNGAAHHHHHHGS
modifications: siRNA siSOD1m linked through an azido linker put by bacterial transglutaminase on the glutamine residue of the myc tag, then copper-free click chemistry
notes: VHH-siRNA conjugate
For B3, the Kd in assay [1] came to 6.8 nM.

B4: VHH 2 (VHH)
VHH: QVQLVQSGGGLVQAGGSLRLSCAASGSVSSIYAMGWYRQAPGKQREWVTTITGRGITDYAASVKGRFTISRDTAKNAVYLQMNNLKPEDTARYYCKIDRRGYAPYWGQGTQVTVSS
notes: also called sdAb VHH 2
For B4, the binding result in assay [3] is reported as “binds”. The Kd in [2] was 350 nM.

B5: VHH 2-Fc (Fc fusion)
chain: QVQLVQSGGGLVQAGGSLRLSCAASGSVSSIYAMGWYRQAPGKQREWVTTITGRGITDYAASVKGRFTISRDTAKNAVYLQMNNLKPEDTARYYCKIDRRGYAPYWGQGTQVTVSS
notes: VHH with no tag fused to a human IgG1 Fc; also called VHHRAGE-Fc fusion; VHH-RAGE-Fc; not shown: human IgG1-Fc fragment encoded by the pINFUSE-IgG1-Fc2 vector (InvivoGen)
Consider B5, for which the binding result in [4] and in [5] was “binds” in each case.

B6: VHH 1 (VHH)
VHH: QVQLVQSGGGLVQPGGSLRLSCAVSGSIFSSATMGWYRQAPGKQRELAARISSGGSTNYLDSVKGRFTISRDNAKNTVYLQMNSLKLEDTAVYYCRLQANFGLVDYWGKGTQVTVSS
notes: also called sdAb VHH 1
Regarding B6, the binding result in assay [6] and in assay [3] was “binds” in each case.

B7: VHH 1-Fc (Fc fusion)
chain: QVQLVQSGGGLVQPGGSLRLSCAVSGSIFSSATMGWYRQAPGKQRELAARISSGGSTNYLDSVKGRFTISRDNAKNTVYLQMNSLKLEDTAVYYCRLQANFGLVDYWGKGTQVTVSS
notes: as for B5
For B7, the binding result in assay [4], in assay [7], in [8] and in assay [5] was “binds” throughout.

B8: VHH 3-Fc (Fc fusion)
chain: QVQLVQSGGGLVQAGGSLRLSCVASGRTFSNYAMAWFRQAPGEEREFVARISWSGGRTSYADSVKGRFTISRDNAKNTVYLQMISLKPEDTAVYYCATEAGAFGGVYSSTGSYDYWGQGTQVTVSS
notes: as for B5
Take B8: the binding result in assay [4] and in [5] was “binds” each time.

B9: VHH 4 (VHH)
VHH: EVQLVESGGGLVQAGGSLRLSCVASGRTFSNYAMAWFRQAPGEEREFVARISWRGGRTSYADSVKGRFTISRDNAKNTVYLQMISLKPEDTAVYYCASEGGAFGGVYSATGSYDYWGQGTQVTVSS
notes: also called sdAb VHH 4
In the case of B9, the Kd in assay [1] was determined as 32 nM.

B10: VHH 3 (VHH)
VHH: QVQLVQSGGGLVQAGGSLRLSCVASGRTFSNYAMAWFRQAPGEEREFVARISWSGGRTSYADSVKGRFTISRDNAKNTVYLQMISLKPEDTAVYYCATEAGAFGGVYSSTGSYDYWGQGTQVTVSS
notes: also called sdAb VHH 3
On to B10, for which, in assay [9], the binding result is “binds”.
